Experimental data as given in the nanobody polyreactivity screen of Harvey et al. (2022).

Assay: yeast display, Sf9 membrane polyspecificity reagent, FACS + sequencing; frameworks hold sequencing errors
Summary of the method: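 Using colony PCR, genes from sorted yeast display clones were amplified, then sequenced on MiSeq at 2 × 250 and filtered by CDR length. The clones had been stained with 10% biotinylated, detergent-solubilized Sf9 membrane reagent for 1 hour at 4 °C and sorted by FACS into low and high (top ~1%) gates on anti-HA and streptavidin fluorescence. Polyreactivity labels come from the gate of origin.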

Sequence	polyreactivity (PSR sort gate)
QVQLVESGGGLVQAGGSLRLSCAASGSTFACNAMGWDRQAPGKERELVAAISWSGGSTYYADSVKGRFTISRDNAKNTVYLQMNSLKPEDTAVYYCAARRYASRTGYLYDFWGQGTQVTVSS	high polyreactivity
QVQLVESGGGLVQAGGSLRLSCAASGFTFYTYAMGWYRQAPGKERELVAAITGSGGRTYYADSVKGRFTISRDNAKTTVYLQMNSLKPEDTAVYYCAALYVYRPRTPYGYWGQGTQVTVSS	high polyreactivity
QVQLVESGGGLVQAGGSLRLSCAASGSIFKGYTMGWYRQAPGKEREFVASISRRGGSTYYADSVKGRFTISRDNAKNTVYLQMNSLKPDDTAVYYCAKDYGKAYDYWGQGTQVTVSS	high polyreactivity
QVQLVESGGGLVQAGGSLRLSCAASGSTFWRNAMGWYRQAPGKERELVAAISRGGSTNYADSVKGRFTISRDNAKNTVYLQMNSLKPEDTAVYYCAARYYYRYNYWGQGTQVTVSS	high polyreactivity
QVQLVESAGGLVQAGGSLRLSCAASGPTFAYNDMGWSRQAPGKERELVAAISWSDGTTYYADSVKGRFTISRDNAKNTVYLQMNSLKPEVTAVYYCAGESYPSEVASYVSEYDYWGQGTQVTVSS	low polyreactivity
QVQLVESGGGLDQAGGSLRLSCAASGFIFPIYAMGWNRQAPGKERELVAAISWSGGSTYYADSVKGRFTISRDNAKNTVYLQMNSLKPEDTAVYYCAKRYPYYPYDYWGQGTQVTVSS	high polyreactivity
QVQHEESGGGLVQAGGSLRLSCAASGSIFLWNAMGSYRQAPGKERELVASIGDSTYYADSVKGRFTISRDNAKNTVYLQMNSLKPEDTAVYYCKAEVLNYLVFGYQLCYDYWGQGTQVTVSS	low polyreactivity
QVQRVESGGGLVQAGRSLRLSCAASGRTFTVYAMGWYRQAPGKERELVAGIRRGDSTYYADSVKGRFTISRDNAKHTVYLQMNSLKPEDTAVYYCNARTSGSSYYYWGQGTQVTVCS	high polyreactivity
QVQLVESGGGLVQAGGSLRLSCAASGSTFITYAMGWYRQAPGKERELVAAIRVIGGRTYYADSVKGRFTISRDNAKNTVYLQMNSLKPEDTAVYYCAVTGRGWGYDYWGQGTQVTVSS	high polyreactivity
QVHLVESGGGLVKAGGSLRLSCAASGSTKYYVMGWYRQAPGKERELVAAISRGSSTYYADSVKGRFTISRDNAKNTVYLQMNSLKPEDTAVYYCAARGPWQAPYDYWGQGTQVTVSS	high polyreactivity
QVQLVESGGGFVQAGGSLRISCAASGRTFYPYAMGWYRQAPGKERELVAAISRSGGGTYYADSVKGRFTISRDNAKNTVYLQMNSLKPEDTAVDYCAADDGVAIYDYWGQGTQVTVSS	low polyreactivity
QVQLVESGGGLVQAGGSLRLSCAASGRTFEYNGMGWYSQAPGKEWELVAAITRGGSTYYADSVKGRFTISRDNAKNTVYLQMNSLKPEDTAVYYCAAVVGWSRYKWLEYWGQGTQVTVSS	low polyreactivity
QVQLVESGGGLVQAGGSLRLSCAASGFIFAYYTMGWYRQAPGKERELVAAISWSGGTTYYADSVKGRFTISRDNAKNTVYLQMNSLKPEDTAVYYCNAYPKWLGYYEDDYWGQGTQVTVSS	low polyreactivity
QVQLVESGGGLVQAGGSLRLSCAASGRIFPYYTMGWYRQAPGKERELVAAITSGGITYYADSVKGRFTISRDNAKNTVYLQMKSLKPEDTAVYSCAALHSGKYTRYKYGYWGQGTQVTVSS	high polyreactivity
QVQLVESGGGLVQAGGSLRLSCAASGRIFKSNAMGWYRQAPGKERELVASISRSGSTNYADSVKGRFTLSRDNAKNTVYLQMNSLKPEDTAVYYCAKDPDAKGGGYDYWGQGTQVTVSS	low polyreactivity
QVQLVESGGGLVQAGGSLRLSCAASGLTFVWYGKGWYRQATGKERELVAAITRGGSTYYADSVKGRFTISRDNAKNTVYLQMKSLKPEDTAVYYCAARRLERRVRPGYYPYDYWVQGTQVTVSS	high polyreactivity
QVQLVESGGGLVQAGGSLRLSCAASGFIFKSYAMGWYRQAPGKERELVAGITRRGGSTYYADSVKGRFTISRDNSKNSVYFQMISLKPEDTAVYYCNAGRKTADYDYWGQGTQVTVSS	high polyreactivity
QVQLVESGGGLVQAGGSLRLSCAASGSTFYIYAMGWYIQAPGKERELVAAISTTDGTTYYADSVKGRFTISRDNAKNTVYLQMNSLKPEDTAVYYCAAEWFGSVQPAYDYWGQGTQVTVSS	high polyreactivity
QVQLVESGGGLVQAGGSLRLSCAASGFIFKSYTMGWYRQAPGKERELVADISKSGGSTYYADSVKGRFTISRDNAKNTVYLQMNSLKPEDTAVYYCNADIWLYVNNYSEYDYWGQGTQVTVSS	high polyreactivity
QVQLVESGGGLVQAGGSLRLSCAASGSTFTIYAMGWYRQAPGKERELVAAISSGGGDTDYADSVKGRFTISRDNAKNTVYLQMNSLKPEDTAGYYCNAEGTSPRTGYDYCGQGTQVTVSS	low polyreactivity
QVHLVESGGGLVQAGGSLRLSCAASGSTFLANTMGWYRQAPGKERELVAAITRRGGSTRYADSVKGRFTISRDNAKNTVFLEMNSLKPEDTAVYYCAAPWFRDTRGYSLYDYWGQGTQVTVSS	high polyreactivity

Sequence	polyreactivity (PSR sort gate)
QVQLVESGGGLVQAGGSLRLSCAASGRIFKRNVMGWYRQAPGKERELVAAITLRGGSTYYADSVKGRFTISRDNAKNTVYLQMNSLKPEDTAVYYCAAVQGTYYWDDYWGQGTQVTVSS	low polyreactivity
QVQLVESGGGLVQAGGSLRLSCAASGRIFAYNAMGWYRQAPGKERELVATITSSGDGTSYADSVKGRFTISRDNAKNTVYLQMNSLKPEDTAVYYCNKVTRVRRDPYDAVAYRGGYWGQGTQVTVSS	high polyreactivity
QVQLVESGGGLVQAGGTLRLSCAASGITFYVYAMGWYRQAPGKEREFVAAINGRGGSTYYADSVKGRFTISRDNAKNTVYLQMNSLKPEDTAVFYCAAESLAIYYKYPPYDYWGQGTQVTVSS	high polyreactivity
QVQLVESGGGLVQAGGSLRLSCAASGGIFASNAMGWYRQAPGKERELVATITRGGSTNYADSVKGRFTISRDNAKNTVYLQLNSLKPEDTAVYYCAARFYSRAFWPAYYYWGQGTQVTVSS	high polyreactivity
QVQLVESGGGLVQAGGSLRLSCAASGSTLAVYAMGWYRQAPGKERELDAAISYSGGGTYYADSVKGRFTISRDNAKNTVYLQMNSLKPEDTAVYYCATDLYYEYYTWDYYWGQGTQVTVSS	low polyreactivity
QVQLVESGGGLVQAGGSLRLSCAASGFIFSRYVMGWYRQAPGKERELVAVISYRGGSTYYADSVKGRFTISRDNAKNTVYVQMNSLKPEDTAVYYCNADTIPDGEDRYDYWGHGTQVTVSS	low polyreactivity
HVRLQESGGGLVQAGGSLRQSCAASGAISPYYDMGWYRLAPGKEREFVASIAHGGTTYYADSVKGRFTTSRDNAKYNVYLRMNRLKPEDTAVYFCAAPKRYLGDYWGQGTQVTVSS	high polyreactivity
QVQLVESGGGLVQAGGSLRLSCAASGSTFSRYAMGWYRQAPGKERELVAAITSNGGRTYYADSVKGRFTISRDNAKNTVYLQMNSLKPEDTAVYYCAAVYYTEYYWGQGTQVTVSS	high polyreactivity
QVQLVKSGGGLVQAGGSLRLSCAASGTFRLYAMGWYRQAPGKERDFVAAITYGGVGTYYADSVKGRFTISRDNAKHTVYLQMNSLNPEDTAVSYCAAELYLTDTDVEYSYWGQGTQVTVSS	low polyreactivity
QVQLVESGGGLVQAGGSLRLSCAASGSTFTLNAMGWSRQAPGKERELVADITSGGGGTYYADSVKGRFTISRDNAKNTVYLQMNSLKPEDTAVYYCAKTYRPSYNPYISFGFDYWGQGTQVTVSS	low polyreactivity
QVQLVESGGGLVQAGGSLRLSCAASGRIFVTNAMGWYRQAPGKEREMVAAITRRGGRTYYADSVKGRFTISRDNAKNTVYLQMHSLKREDTAVYYCAAERYPEAGSPYGTAEMDYWGQGTQVTVSS	high polyreactivity
QVQLVESGGGLVQAGGSLRLSCAASGSIFLWYAMGWYRQAPGKERELVAAIDWSGGSTYYADSVKGRFTISRDNAKNTVYLQMNSLKPEDTAGYDCAAEWGNWYWWDYGYDYYYWGQGTQVTVSS	high polyreactivity
QVQLVESGGGLVQSVGSLRLSCAASGRSFWINTMGWYRQAPGKERELLAAITSGGSTKYADSVKGRFTISRDNAKNTVYFQMNSLKPEDCAVYYCARRFRPNDVWPSHRGYGYWGQGTQVSVSS	low polyreactivity
QVQLVESGVCIVEAGGSLRLSCAASGRSLKVYAMGWYRQAPGKERELVAAISQRGGSTYYADSVKGRFTISRDNAKNSVYLQMNSRKPEDTAVYYCAARYPYQSYLYRFDYWGQGTQVTVSS	high polyreactivity
QVQLVESGGGLVQAGGSLRLSCAASGGTFSKNAMGWSRQAPGKERELVADIRSGGSTYYADSVKGRFTISRDNAKNTVYLQMNSLKPEDTAVYYCNADGDVNEYDYWGQGTQVTVSS	low polyreactivity
QVQLVESGGGLVQAGGSLRLSCAASGLTFPIYAMGWYRQAPGKEREFVAVITTSGGSTYYSDSVKGRFTISRDNAKNTVYLQMNSLKPEDTAVYYCNARRIRHYYWGQGTQVTVSS	high polyreactivity
QVQLVESGGGLVQAGGTLRLSCAASGSTIKPYAMGWNRQAPGKERELVAVIRWRGGRTYYADSVKGRFTISRDNAKNTAYFQINSQNPADTAVYYCAAGGSQAAGGYGYYGYDYWGQGTQVTVSA	low polyreactivity
QVQLVESGGRLVQAGGILRLSCAASGSTSHYYAMGWSRQAPGKERELVASITCSGGSTYYADSVKGRFTISRDNAKNTVYLQMNSLKPEATAVYYCNAQERRVRDYDYWGQGTQVTVSS	low polyreactivity
QVQLVESGGGLVQAGGSLRLSCAPSGSTFTINVMGWYRQAPGKERELVAAINGGGRTNYADSVKGRFTISRDNAKNTVYLQINSLIPEDTAVYYCAADGLSNVRQMDYWGQGTQVTVSS	low polyreactivity
QVQLVESGGGLVQAGGSLRLSCAASGSTFDYYAMGWYRQAPGKERELVAAISGSGDRTYYADSVKGGFTISRDNAKNTVYLQMNSLKREDTAVYYCAKYGRTRFYYWGQVTQVTVSS	high polyreactivity
